Results from patent publication US9458427B2, “IFNγR2 compositions and methods of inhibiting neuronal cell death” (Case Western Reserve University, priority 2009, dated 2016).
Blank lines part the entries; values can stand above or below the molecule they belong to.

Columns and labels:
Mouse Bax = molecular target: T1, Mouse Bax (Mus musculus, UniProt Q07813); assay: Yeast-based functional screening for Bax inhibitors; format: cell-based; conditions: yeast strain EGY48, galactose-inducible mouse Bax
T1 construct: expressed in transfected cells; host or cells: yeast strain EGY48, pGilda vector
T1 sequence (Q07813 whole entry): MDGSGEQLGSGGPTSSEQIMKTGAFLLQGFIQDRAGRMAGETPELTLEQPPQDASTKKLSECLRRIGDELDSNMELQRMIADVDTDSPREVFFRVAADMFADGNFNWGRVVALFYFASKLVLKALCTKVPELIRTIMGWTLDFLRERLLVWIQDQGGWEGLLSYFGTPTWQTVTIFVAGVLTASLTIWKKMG
Procedure: The yeast strain EGY48 was used for the yeast functional screening for Bax inhibitors. Mouse Bax was expressed under a galactose-inducible promoter using pGilda vector as reported. Yeast expression libraries of cDNAs of mouse brain and a human cell line (HeLa) were prepared in pYES2 and pJG4-5 vectors, respectively.
To perform a yeast-based functional screen for Bax inhibitors, yeast expression cDNA libraries were generated from purified mRNAs of human HeLa cells and mouse brain tissue using pJG4-5 and pYES2 vectors, respectively. […] IFNγR2263-337 contains a Jak2-binding domain (amino acids 284-295). To determine the role of the Jak2-binding domain in Bax inhibition, two IFNγR2 mutants were generated (FIG. 1B) and tested for their anti-Bax activity in human cells as described below.

human Bax ΔTM = molecular target: T2, human Bax ΔTM (Homo sapiens, UniProt Q07812); assay: Binding of recombinant proteins (pull-down on anti-Bax beads); conditions: purified recombinant proteins, IFNγR2263-337 tagged with thioredoxin (rTrx)
T2 construct: Bax C terminal transmembrane truncated human Bax; His tag (on MBP) (N, cleaved yes); made in house
T2 sequence (Q07812 1-171 limits assumed, stated change not applied): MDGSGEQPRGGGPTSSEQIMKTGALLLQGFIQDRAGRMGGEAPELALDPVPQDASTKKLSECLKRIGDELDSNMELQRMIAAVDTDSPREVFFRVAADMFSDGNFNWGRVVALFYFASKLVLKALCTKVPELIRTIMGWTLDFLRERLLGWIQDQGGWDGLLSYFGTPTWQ
Text: Recombinant human Bax ΔTM (Bax C terminal transmembrane truncated human Bax) was produced by using pHMTc vector downstream of maltose binding protein (MBP), separated by the TEV protease site. Overexpressed MBP-Bax was purified through a maltose-binding column (NEB) and subsequently cleaved by TEV protease (Invitrogen), followed by Ni-affinity purification to remove the protease and the His-tagged MBP. IFNγR2 cytoplamic domain (amino acids 263 337) was fused with thioredoxin (rTrx) to increase the recovery rate from bacterial lysates. The production and the purification of this fusion protein were performed by Protein X Laboratory (San Diego, Calif.). Recombinant Bax (25 ng) was loaded onto Sepharose G beads pre-equilibrated with anti-Bax antibody (Bax B9, Santa Cruz) or pre-immune IgG (control IgG) at 4° C. for 2 h. The excess Bax molecules were washed 3 times with buffer (50 mM phosphate buffer, pH 7.4). Recombinant IFNγR2 (263-337)-rTrx (25 ng) was added to the beads preloaded with Bax and anti-Bax or control IgG. Beads and IFNγR2263-337-rTrx were incubated at 4° C. for 2 h. After the incubation, beads were extensively washed with the loading buffer (50 mM phosphate buffer, pH 7.4). Beads were boiled in Laemmli buffer, and the supernatant was collected as a sample. Samples were analyzed by western blot using anti IFNγR2 antibody (C20, Santa Cruz) and Bax (N20, Santa Cruz).

[1] = tested on: HT1080 (IFNγR2 null mutant and JAK2 null mutant) cells; assay: Etoposide-induced apoptosis in HT1080-derived IFNγR2 null and Jak2 null cells (Hoechst nuclear staining); format: cell-based, human; conditions: cells lacking IFNγR2 and Jak2, 10 μM etoposide for 24 h
Procedure: HT1080 (wild type, IFNγR2 null mutant and JAK2 null mutant) cells were cultured in Dulbecco's Modified Eagle's Medium (DMEM) supplemented with 10% fetal bovine serum (FBS). HeLa, Human Embryonic Kidney (HEK) 293 and HEK293T cells were purchased from ATCC, and cultured in DMEM supplemented with 10% FBS. LNCap and PC3 cells were purchased from ATCC and cultured in DMEM F12 medium supplemented with 10% FBS. RWPE1 and RWPE2 were purchased from ATCC and cultured in keratinocytes-SFM plus supplements medium (Gibco). Primary mammary epithelial (4A100) cultures were derived from organoids isolated from discarded mammary tissue acquired from patients undergoing reduction mammoplasty surgery. Anonymized specimens were acquired from patients who had given written consent, through the Tissue Procurement and Histology Core Facility of the Case Comprehensive Cancer Center (Case), under a Case CCC IRB approved protocol. Primary epithelial cultures were grown in M87A+X medium. Human HME1 cells (Clontech) were grown in medium 171 with mammary epithelial growth supplement (Cascade Biologics) and penicillin-streptomycin.42 Human breast cancer cell line MDA-MD468 was cultured in RPMI, 5% FBS, supplemented with L-glutamine, penicillin-streptomycin and fungizone (Gibco). […]
Cells were cultured overnight in DMEM supplemented with 10% FBS. […] Transfection efficiency was analyzed by the expression of the EGFP-tagged proteins.
(§1) Apoptosis was induced by transfecting the cells with pcDNA3-human Bax, or pcDNA3-human Bak, or pcDNA3-human Bim EL, or by treatment with etoposide (10 μM) or staurosporine (100 nM). To determine the induction of apoptosis by different apoptotic stresses, cells were stained with Hoechst 33258 dye, and the numbers of cells with apoptotic nuclei were counted using fluorescence microscopy. Three hundred cells were analyzed in triplicate samples. […] Caspase activity were measured by using a fluorogenic caspase 3 substrate II (Calbiochem), IFNγR2 constructs were cloned in pEGFP-C2 (IFNγR2wild type, IFNγR21-295 and IFNγR2296-337) vector.

Caspase 3 = assay: Etoposide-induced Caspase 3 activation in IFNγR2 null cells; format: cell-based, human; conditions: 10 μM etoposide for 24 h, plasmid-mediated expression
Procedure: as §1

human Bim EL = assay: Apoptosis induced by Bim overexpression in HEK293T cells; format: cell-based; conditions: 24 h after transfection
Procedure: (§2) Cells were cultured overnight in DMEM supplemented with 10% FBS. The transfections were performed using […]® (Qiagen, Valencia, Calif.) in accordance with the manufacturer's instructions. Transfection efficiency was analyzed by the expression of the EGFP-tagged proteins.
as §1
(§3) For Bax, Bak or Bim EL overexpression, cells were transfected with either 1 μg pcDNA3-human Bax, 1 μg pcDNA3-human Bak, or 1 μg pcDNA3 human Bim EL, and 4 μg of pEGFP plasmid encoding IFNγR2, and the apoptosis or caspase activity was determined 24 h after the transfection.

human Bak = molecular target: T3, human Bak (Homo sapiens, UniProt Q16611); assay: Apoptosis induced by Bak overexpression in HEK293 cells; format: cell-based; conditions: 24 h after transfection
T3 construct: expressed in transfected cells; host or cells: HEK293
T3 sequence (Q16611 1-211): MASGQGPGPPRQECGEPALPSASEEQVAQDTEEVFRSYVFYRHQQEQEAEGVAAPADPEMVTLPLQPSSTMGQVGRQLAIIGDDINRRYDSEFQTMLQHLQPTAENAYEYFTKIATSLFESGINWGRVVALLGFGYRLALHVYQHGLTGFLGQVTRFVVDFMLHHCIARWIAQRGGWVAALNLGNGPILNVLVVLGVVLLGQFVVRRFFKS
Procedure: as §2, §1, §3

Bax [2] = molecular target: T4, Bax (Homo sapiens, UniProt Q07812); assay: Staurosporine-induced Bax activation in HeLa cells (6A7 antibody immunostaining); format: cell-based; design: endogenous in cells; host or cells: HeLa; conditions: staurosporine 100 nM, 3 h
T4 sequence (Q07812 whole entry): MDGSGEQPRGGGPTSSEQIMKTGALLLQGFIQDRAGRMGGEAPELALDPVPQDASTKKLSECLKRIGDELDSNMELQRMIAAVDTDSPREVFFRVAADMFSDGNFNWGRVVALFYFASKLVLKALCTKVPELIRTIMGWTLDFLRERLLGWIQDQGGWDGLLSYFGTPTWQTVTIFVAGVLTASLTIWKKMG
Procedure: HeLa cells were transiently transfected with pEGFP-C2-IFNγR2 (wild type 1-295, or 296-337) using […]® (Qiagen, Valencia, Calif.) in accordance with the manufacturer's instructions. Four micograms of the plasmid were used to transfect cells cultured in 6-cm diameter dishes. After 24 h of transfection, the cells were treated with staurosporine (100 nM) for 3 h. Then, the cells were washed with phosphate buffer pH 7.4 (PBS), fixed using paraformaldehyde (1%), permeabilized with Triton X-100 (0.02%), blocked with goat serum, and the activation of Bax was analyzed by immunocytochemistry using monoclonal Bax 6A7 antibody (BDPharmingen) and ALEXA FLUOR® 568-labeled anti-mouse IgG secondary antibody (Invitrogen).

Bax [3] = molecular target: T4, Bax; assay: Apoptosis induced by Bax overexpression in HEK293 cells (Hoechst nuclear staining); format: cell-based; design: expressed in transfected cells; host or cells: HEK293; conditions: HEK293 cells co-transfected with pcDNA3-h Bax and pEGFP-C2-IFNγR2 construct, 24 h after transfection
Procedure: as §2, §1, §3

Suppression of Bax in yeast (rescue of yeast growth from Bax expression) (Mouse Bax): Bax suppressor
B1: IFNγR2263-337: cytoplasmic domain of IFNγR2 (amino acids 263-337); recombinant form fused with thioredoxin (rTrx) (protein)
chain: AGACFFLVLKYRGLIKYWFHTPPSIPLQIEEYLKDPTQPILEALDKDSSPKDDVWDSVSIISFPEKEQEDVLQTL
modifications: left off: large carriers
Direct interaction with BaxΔTM (human Bax ΔTM): confirmed

Inhibition of STS-induced Bax activation (6A7 Ab-positive cells in GFP-positive cells) (Bax [2]): inhibited STS-induced Bax activation
B2: IFNγR2wild type: interferon gamma receptor beta chain, full length, expressed from pEGFP-C2 plasmid as EGFP fusion (protein)
chain: APPDPLSQLPAPQHPKIRLYNAEQVLSWEPVALSNSTRPVVYQVQFKYTDSKWFTADIMSIGVNCTQITATECDFTAASPSAGFPMDFNVTLRLRAELGALHSAWVTMPWFQHYRNVTVGPPENIEVTPGEGSLIIRFSSPFDIADTSTAFFCYYVHYWEKGGIQQVKGPFRSNSISLDNLKPSRVYCLQVQAQLLWNKSNIFRVGHLSNISCYETMADASTELQQVILISVGTFSLLSVLAGACFFLVLKYRGLIKYWFHTPPSIPLQIEEYLKDPTQPILEALDKDSSPKDDVWDSVSIISFPEKEQEDVLQTL
modifications: left off: large carriers
notes: interferon gamma receptor beta chain, full length, expressed from pEGFP-C2 plasmid as EGFP fusion
Inhibition of etoposide-induced apoptosis [1]: able to inhibit etoposide-induced apoptosis
Inhibition of etoposide-induced Caspase 3 activation (Caspase 3): inhibited etoposide-induced Caspase 3 activation
Inhibition of apoptosis induced by Bim overexpression (human Bim EL): able to inhibit apoptosis induced by Bim overexpression
Rescue from apoptosis induced by Bak overexpression (human Bak): could not rescue cells from apoptosis induced by Bak overexpression
Inhibition of apoptosis induced by Bax overexpression (Bax [3]): able to inhibit apoptosis induced by Bax overexpression
